According to patent US20230406950A1 (LYVGEN BIOPHARMA, published 2023):

Experiments:
[1] = biological target: T1, human PD-1 expressed on cells (human, UniProt Q15116 25-288); test: flow cytometry (FACS), MFI, CHO cells expressing human PD-1
T1 construct: whole, on cells; also called human PD-1 over-expressed on the CHO cells; Jurkat/NFkB-Luci/PD-1 cells
Method: (§1) Exemplary anti-PD-1/CD137 bi-specific antibodies were analyzed by FACS for their binding properties to human PD-1 and/or human CD137 expressed on CHO cells. Briefly, cultured cells were harvested, counted and cell viability was evaluated using the Trypan Blue exclusion method. Viable cells were then adjusted to 2×10⁶ cells per mL in PBS containing 2% BSA. 100 μL of this cell suspension were further aliquoted per well into a V-bottom 96-well plate. […] After incubation for 2 hours at 4° C., cells were centrifuged (3 min, 1000× g), washed with 250 μL/well BSA-containing FACS Stain Buffer, resuspended and incubated for an additional 1 hour at 4° C. with 100 μL/well fluorochrome-conjugated anti-IgG antibody for detection of the bisepecific antibody. Cells were then washed with 250 μL/well BSA-containing FACS Stain Buffer, resuspended in 100 μL/well FACS Stain Buffer, acquired and analyzed using a FACS machine. Binding of the bispecific antibodies to human PD-1 or human CD137 expressing CHO cells were evaluated and the mean fluorescence intensity is plotted in histograms or dot plots.

[2] = biological target: T2, human CD137 ECD protein (His tag) (human, UniProt Q07011 24-186); test: bridging ELISA: human CD137 ECD (His tag) coated, antibody titrated, then human PD-1 ECD (mouse IgG2a Fc tag), HRP anti-mouse IgG2a Fc; A450-A620
T2 construct: extracellular domain; also called recombinant human CD137; not shown: His tag
Method: Exemplary anti-PD-1/CD137 bi-specific antibodies were analyzed by ELISA for their simultaneous binding to recombinant human PD-1 and human CD137. Briefly, human CD137 ECD protein (His tag) was diluted and coated onto an ELISA plate with a volume of 100 μL/well by incubation at 4° C. overnight. The next day, the plate was blocked with PBST-BSA buffer, then serially diluted samples of anti-PD-1/CD137 bi-specific antibodies were pipetted into appropriate wells at 50 μL/well, and the plate was incubated for 1 hour followed by washing. The extracellular domain (ECD) of human PD-1 protein (mouse IgG2a Fc tag) was added into the plate at 50 μL/well. After 1-hour incubation at room temperature, HRP-conjugated anti-Mouse IgG, Fc G2a specific antibody was added into the plate at 100 μL/well. The plate was incubated for 1 hour at room temperature followed by washing. TMB substrate solution was added at 100 μL/well and the color development was stopped by adding 100 uL/well Stop Solution (2N H₂SO₄). Absorbance at 450 nm and 620 nm was read by Tecan F200 Pro plate reader. GraphPad 7.0, “[Agonist] vs. response—Variable slope (four parameters)” was used to plot the binding data and calculate binding EC50 values.

[3] = biological target: T3, human CD137 expressed on cells (human, UniProt Q07011 24-255); test: flow cytometry (FACS), MFI, CHO cells expressing human CD137
T3 construct: whole, on cells; also called 4-1BB; TNFRSF9
Method: as §1

T1 sequence (Q15116 25-288): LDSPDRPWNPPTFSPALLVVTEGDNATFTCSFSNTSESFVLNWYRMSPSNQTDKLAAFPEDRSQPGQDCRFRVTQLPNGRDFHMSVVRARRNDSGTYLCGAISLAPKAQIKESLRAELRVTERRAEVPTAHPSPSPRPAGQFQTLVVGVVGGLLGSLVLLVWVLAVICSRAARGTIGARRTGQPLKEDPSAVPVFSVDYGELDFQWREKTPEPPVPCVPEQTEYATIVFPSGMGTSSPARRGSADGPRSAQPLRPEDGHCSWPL
T3 sequence (Q07011 24-255): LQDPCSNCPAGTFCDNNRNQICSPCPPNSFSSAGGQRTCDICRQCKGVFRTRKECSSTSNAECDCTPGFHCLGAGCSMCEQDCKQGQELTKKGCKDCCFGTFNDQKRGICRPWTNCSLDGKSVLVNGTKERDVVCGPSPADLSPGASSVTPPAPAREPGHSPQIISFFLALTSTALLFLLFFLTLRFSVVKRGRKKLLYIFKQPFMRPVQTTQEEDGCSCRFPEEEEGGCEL

Row | EC50 (read off the curve) [1] | EC50 (read off the curve) [2] | EC50 (read off the curve) [3] | binding result [2] | binding result [3] | Binder
1 | ~0.1 µg/mL | ~0.02 µg/mL |  |  |  | Ly512 (bispecific antibody, human IgG2, kappa, Anti-PD-1/CD137: Ly516 heavy chain; Ly516 light chain fused to Ly1630 scFv (VL-VH)) heavy: QVTLKESGPALVKPTQTLTLTCTFSGFSLSTSGTCVSWIRQPPGKALEWLATICWEDSKGYNPSLKSRLTISKDTSKNQAVLTMTNMDPVDTATYYCARREDSGYFWFPYWGQGTLVTVSSASTKGPSVFPLAPCSRSTSESTAALGCLVKDYFPEPVTVSWNSGALTSGVHTFPAVLQSSGLYSLSSVVTVPSSNFGTQTYTCNVDHKPSNTKVDKTVERKCCVECPPCPAPPVAPSVFLFPPKPKDTLMISRTPEVTCVVVDVSHEDPEVQFNWYVDGVEVHNAKTKPREEQFNSTFRVVSVLTVVHQDWLNGKEYKCKVSNKGLPAPIEKTISKTKGQPREPQVYTLPPSREEMTKNQVSLTCLVKGFYPSDIAVEWESNGQPENNYKTTPPMLDSDGSFFLYSKLTVDKSRWQQGNVFSCSVMHEALHNHYTQKSLSLSPGK light: NIQMTQSPSSLSASVGDRVTITCKAGQNVNNYLAWYQQKPGKAPKVLIFNANSLQTGVPSRFSGSGSGTDFTLTISSLQPEDFATYYCQQYNSWPTFGGGTKVEIKRTVAAPSVFIFPPSDEQLKSGTASVVCLLNNFYPREAKVQWKVDNALQSGNSQESVTEQDSKDSTYSLSSTLTLSKADYEKHKVYACEVTHQGLSSPVTKSFNRGECGGGGSGGGGSGGGGSGGGGSDIQMTQSPSSLSASVGDRVTITCRASQDIRSNLNWYQQKPGGAVKLLIYYTSRLHSGVPSRFSGSGSGTDYTLTISSLQPEDFATYFCQQSEKLPRTFGGGTKVEIRGGGGSGGGGSGGGGSGGGGSQVQLVQSGAEVKKPGASVKVSCKASGYTFAGFEMHWVRQAPGQGLEWMGAIDPKTGGTDYNQKFKDRVTMTRDTSISTAYMELSRLRSDDTAVYYCARDLGYFDVWGQGTLVTVSS
2 | ~0.1 µg/mL | ~0.03 µg/mL | ~0.2 µg/mL |  |  | Ly513 (bispecific antibody, human IgG2, kappa, Anti-PD-1/CD137: Ly516 heavy chain; Ly516 light chain fused to Ly1630 scFv (VH-VL)) heavy: QVTLKESGPALVKPTQTLTLTCTFSGFSLSTSGTCVSWIRQPPGKALEWLATICWEDSKGYNPSLKSRLTISKDTSKNQAVLTMTNMDPVDTATYYCARREDSGYFWFPYWGQGTLVTVSSASTKGPSVFPLAPCSRSTSESTAALGCLVKDYFPEPVTVSWNSGALTSGVHTFPAVLQSSGLYSLSSVVTVPSSNFGTQTYTCNVDHKPSNTKVDKTVERKCCVECPPCPAPPVAPSVFLFPPKPKDTLMISRTPEVTCVVVDVSHEDPEVQFNWYVDGVEVHNAKTKPREEQFNSTFRVVSVLTVVHQDWLNGKEYKCKVSNKGLPAPIEKTISKTKGQPREPQVYTLPPSREEMTKNQVSLTCLVKGFYPSDIAVEWESNGQPENNYKTTPPMLDSDGSFFLYSKLTVDKSRWQQGNVFSCSVMHEALHNHYTQKSLSLSPGK light: NIQMTQSPSSLSASVGDRVTITCKAGQNVNNYLAWYQQKPGKAPKVLIFNANSLQTGVPSRFSGSGSGTDFTLTISSLQPEDFATYYCQQYNSWPTFGGGTKVEIKRTVAAPSVFIFPPSDEQLKSGTASVVCLLNNFYPREAKVQWKVDNALQSGNSQESVTEQDSKDSTYSLSSTLTLSKADYEKHKVYACEVTHQGLSSPVTKSFNRGECGGGGSGGGGSGGGGSGGGGSQVQLVQSGAEVKKPGASVKVSCKASGYTFAGFEMHWVRQAPGQGLEWMGAIDPKTGGTDYNQKFKDRVTMTRDTSISTAYMELSRLRSDDTAVYYCARDLGYFDVWGQGTLVTVSSGGGGSGGGGSGGGGSGGGGSDIQMTQSPSSLSASVGDRVTITCRASQDIRSNLNWYQQKPGGAVKLLIYYTSRLHSGVPSRFSGSGSGTDYTLTISSLQPEDFATYFCQQSEKLPRTFGGGTKVEIR
3 | ~0.2 µg/mL | ~0.02 µg/mL | ~0.2 µg/mL |  |  | Ly511 (bispecific antibody, human IgG2, kappa, Anti-PD-1/CD137: Ly516 heavy chain fused to Ly1630 scFv (VH-VL); Ly516 light chain) heavy: QVTLKESGPALVKPTQTLTLTCTFSGFSLSTSGTCVSWIRQPPGKALEWLATICWEDSKGYNPSLKSRLTISKDTSKNQAVLTMTNMDPVDTATYYCARREDSGYFWFPYWGQGTLVTVSSASTKGPSVFPLAPCSRSTSESTAALGCLVKDYFPEPVTVSWNSGALTSGVHTFPAVLQSSGLYSLSSVVTVPSSNFGTQTYTCNVDHKPSNTKVDKTVERKCCVECPPCPAPPVAPSVFLFPPKPKDTLMISRTPEVTCVVVDVSHEDPEVQFNWYVDGVEVHNAKTKPREEQFNSTFRVVSVLTVVHQDWLNGKEYKCKVSNKGLPAPIEKTISKTKGQPREPQVYTLPPSREEMTKNQVSLTCLVKGFYPSDIAVEWESNGQPENNYKTTPPMLDSDGSFFLYSKLTVDKSRWQQGNVFSCSVMHEALHNHYTQKSLSLSPGGGGGSGGGGSGGGGSGGGGSQVQLVQSGAEVKKPGASVKVSCKASGYTFAGFEMHWVRQAPGQGLEWMGAIDPKTGGTDYNQKFKDRVTMTRDTSISTAYMELSRLRSDDTAVYYCARDLGYFDVWGQGTLVTVSSGGGGSGGGGSGGGGSGGGGSDIQMTQSPSSLSASVGDRVTITCRASQDIRSNLNWYQQKPGGAVKLLIYYTSRLHSGVPSRFSGSGSGTDYTLTISSLQPEDFATYFCQQSEKLPRTFGGGTKVEIR light: NIQMTQSPSSLSASVGDRVTITCKAGQNVNNYLAWYQQKPGKAPKVLIFNANSLQTGVPSRFSGSGSGTDFTLTISSLQPEDFATYYCQQYNSWPTFGGGTKVEIKRTVAAPSVFIFPPSDEQLKSGTASVVCLLNNFYPREAKVQWKVDNALQSGNSQESVTEQDSKDSTYSLSSTLTLSKADYEKHKVYACEVTHQGLSSPVTKSFNRGEC

The next lines start with the binder.

Row | Binder | EC50 (read off the curve) [1] | EC50 (read off the curve) [2] | EC50 (read off the curve) [3] | binding result [2] | binding result [3]
4 | Ly460 (bispecific antibody, human IgG1, kappa, Three-chain format: Ly516 heavy chain fused to Ly1630 light chain; Ly516 light chain; Ly1630 VH-CH1) heavy: QVTLKESGPALVKPTQTLTLTCTFSGFSLSTSGTCVSWIRQPPGKALEWLATICWEDSKGYNPSLKSRLTISKDTSKNQAVLTMTNMDPVDTATYYCARREDSGYFWFPYWGQGTLVTVSSASTKGPSVFPLAPSSKSTSGGTAALGCLVKDYFPEPVTVSWNSGALTSGVHTFPAVLQSSGLYSLSSVVTVPSSSLGTQTYICNVNHKPSNTKVDKKVEPKSCDKTHTCPPCPAPELLGPSVFLFPPKPKDTLMISRTPEVTCVVVDVSHEDPEVKFNWYVDGVEVHNAKTKPREEQYNSTYRVVSVLTVLHQDWLNGKEYKCKVSNKALPAPIEKTISKAKGQPREPQVYTLPPSREEMTKNQVSLTCLVKGFYPSDIAVEWESNGQPENNYKTTPPVLDSDGSFFLYSKLTVDKSRWQQGNVFSCSVMHEALHNHYTQKSLSLSPGGGGGSGGGGSGGGGSGGGGSDIQMTQSPSSLSASVGDRVTITCRASQDIRSNLNWYQQKPGGAVKLLIYYTSRLHSGVPSRFSGSGSGTDYTLTISSLQPEDFATYFCQQSEKLPRTFGGGTKVEIRRTVAAPSVFIFPPSDEQLKSGTASVVCLLNNFYPREAKVQWKVDNALQSGNSQESVTEQDSKDSTYSLSSTLTLSKADYEKHKVYACEVTHQGLSSPVTKSFNRGEC light: NIQMTQSPSSLSASVGDRVTITCKAGQNVNNYLAWYQQKPGKAPKVLIFNANSLQTGVPSRFSGSGSGTDFTLTISSLQPEDFATYYCQQYNSWPTFGGGTKVEIKRTVAAPSVFIFPPSDEQLKSGTASVVCLLNNFYPREAKVQWKVDNALQSGNSQESVTEQDSKDSTYSLSSTLTLSKADYEKHKVYACEVTHQGLSSPVTKSFNRGEC QVQLVQSGAEVKKPGASVKVSCKASGYTFAGFEMHWVRQAPGQGLEWMGAIDPKTGGTDYNQKFKDRVTMTRDTSISTAYMELSRLRSDDTAVYYCARDLGYFDVWGQGTLVTVSSASTKGPSVFPLAPSSKSTSGGTAALGCLVKDYFPEPVTVSWNSGALTSGVHTFPAVLQSSGLYSLSSVVTVPSSSLGTQTYICNVNHKPSNTKVDKKVEPKSCDK | ~0.2 µg/mL |  |  | binds | binds
5 | Ly456 (bispecific antibody, human IgG1, kappa, Anti-PD-1/CD137: Ly516 heavy chain fused at C-terminus to Ly1630 scFv (VL-VH); Ly516 light chain) heavy: QVTLKESGPALVKPTQTLTLTCTFSGFSLSTSGTCVSWIRQPPGKALEWLATICWEDSKGYNPSLKSRLTISKDTSKNQAVLTMTNMDPVDTATYYCARREDSGYFWFPYWGQGTLVTVSSASTKGPSVFPLAPSSKSTSGGTAALGCLVKDYFPEPVTVSWNSGALTSGVHTFPAVLQSSGLYSLSSVVTVPSSSLGTQTYICNVNHKPSNTKVDKKVEPKSCDKTHTCPPCPAPELLGPSVFLFPPKPKDTLMISRTPEVTCVVVDVSHEDPEVKFNWYVDGVEVHNAKTKPREEQYNSTYRVVSVLTVLHQDWLNGKEYKCKVSNKALPAPIEKTISKAKGQPREPQVYTLPPSREEMTKNQVSLTCLVKGFYPSDIAVEWESNGQPENNYKTTPPVLDSDGSFFLYSKLTVDKSRWQQGNVFSCSVMHEALHNHYTQKSLSLSPGGGGGSGGGGSGGGGSGGGGSDIQMTQSPSSLSASVGDRVTITCRASQDIRSNLNWYQQKPGGAVKLLIYYTSRLHSGVPSRFSGSGSGTDYTLTISSLQPEDFATYFCQQSEKLPRTFGGGTKVEIRGGGGSGGGGSGGGGSGGGGSQVQLVQSGAEVKKPGASVKVSCKASGYTFAGFEMHWVRQAPGQGLEWMGAIDPKTGGTDYNQKFKDRVTMTRDTSISTAYMELSRLRSDDTAVYYCARDLGYFDVWGQGTLVTVSS light: NIQMTQSPSSLSASVGDRVTITCKAGQNVNNYLAWYQQKPGKAPKVLIFNANSLQTGVPSRFSGSGSGTDFTLTISSLQPEDFATYYCQQYNSWPTFGGGTKVEIKRTVAAPSVFIFPPSDEQLKSGTASVVCLLNNFYPREAKVQWKVDNALQSGNSQESVTEQDSKDSTYSLSSTLTLSKADYEKHKVYACEVTHQGLSSPVTKSFNRGEC | ~0.2 µg/mL | ~0.02 µg/mL |  |  | 
